Target: T1, FG-N, MGT-Nsp1(48–172)-… (S. cerevisiae)
T1 construct: added N-terminal residues; Nsp1, FG nucleoporin, N-terminal Asn-rich segment of low charge with irregularly spaced FG repeats, residues 48-172; Isotope-labelled for NMR; source: E. coli BL21DE3 Gold, purified (8 M urea throughout, Talon resin); also observed inside living E. coli
Experiment: NMR titration; HSQC test of reversibility in buffer A; FG-N 50 μM, Kap95 added to 25 μM, then diluted with more FG-N
Conditions: both partners purified

binding result: binds
B1: Kap95 (natural protein, S. cerevisiae)
chain: MSTAEFAQLLENSILSPDQNIRLTSETQLKKLSNDNFLQFAGLSSQVLIDENTKLEGRILAALTLKNELVSKDSVKTQQFAQRWITQVSPEAKNQIKTNALTALVSIEPRIANAAAQLIAAIADIELPHGAWPELMKIMVDNTGAEQPENVKRASLLALGYMCESADPQSQALVSSSNNILIAIVQGAQSTETSKAVRLAALNALADSLIFIKNNMEREGERNYLMQVVCEATQAEDIEVQAAAFGCLCKIMSLYYTFMKPYMEQALYALTIATMKSPNDKVASMTVEFWSTICEEEIDIAYELAQFPQSPLQSYNFALSSIKDVVPNLLNLLTRQNEDPEDDDWNVSMSAGACLQLFAQNCGNHILEPVLEFVEQNITADNWRNREAAVMAFGSIMDGPDKVQRTYYVHQALPSILNLMNDQSLQVKETTAWCIGRIADSVAESIDPQQHLPGVVQACLIGLQDHPKVATNCSWTIINLVEQLAEATPSPIYNFYPALVDGLIGAANRIDNEFNARASAFSALTTMVEYATDTVAETSASISTFVMDKLGQTMSVDENQLTLEDAQSLQELQSNILTVLAAVIRKSPSSVEPVADMLMGLFFRLLEKKDSAFIEDDVFYAISALAASLGKGFEKYLETFSPYLLKALNQVDSPVSITAVGFIADISNSLEEDFRRYSDAMMNVLAQMISNPNARRELKPAVLSVFGDIASNIGADFIPYLNDIMALCVAAQNTKPENGTLEALDYQIKVLEAVLDAYVGIVAGLHDKPEALFPYVGTIFQFIAQVAEDPQLYSEDATSRAAVGLIGDIAAMFPDGSIKQFYGQDWVIDYIKRTRSGQLFSQATKDTARWAREQQKRQLSL
notes: Kap95, nuclear transport factor; also called TF; transport factor; source: prepared as previously described (Tetenbaum-Novatt et al., 2012)

— article PMC4621360 (eLife, 2015)
